Article PMC7316485, “Secretion of Recombinant Interleukin-22 by Engineered Lactobacillus reuteri Reduces Fatty Liver Disease in a Mouse Model of Diet-Induced Obesity” (mSphere, 2020)

Molecular target: the molecule itself
Test: migration on a gel, Western blot; FLAG-tagged mIL-22 from L. reuteri grown in LDM3 at 37°C to OD600 3.5; total lysate (VPL31125) or protein precipitated from culture supernatant (VPL3778); samples prepared as in ref. 14; gel conditions not told

B1: murine interleukin-22 with C-terminal 3x FLAG tag, without signal peptide (IL-22:3X FLAG, pVPL31125) (natural protein, mouse, UniProt Q9JJY9 34-179, looked up)
chain: LPVNTRCKLEVSNFQQPYIVNRTFMLAKEASLADNNTDVRLIGEKLFRGVSAKDQCYLMKQVLNFTLEDVLLPQSDRFQPYMQEVVPFLTKLSNQLSSCHISGDDQNIQKNVRRLKETVKKLGESGEIKAIGELDLLFMSLRNACV
notes: also called mIL-22; source: L. reuteri VPL31125 (accumulates mIL-22 intracellularly), total lysate; not shown: 3x FLAG, C-terminal, kept
  stoichiometry N: 4

B2: murine interleukin-22 with C-terminal 3x FLAG tag, cleaved from the fusion with a Lactobacillus reuteri signal peptide (SP:IL-22:3X FLAG, pVPL3776) (natural protein, mouse, UniProt Q9JJY9 34-179, looked up)
chain: B1 chain
notes: the rest kept the signal peptide; also called mIL-22; mature mIL-22; source: L. reuteri VPL3778 (engineered to secrete mIL-22), protein precipitated from culture supernatant; not shown: 3x FLAG, C-terminal, kept
  stoichiometry N: 4
